Reference: publication PMC5089669, “Biocatalytic Properties and Structural Analysis of Eugenol Oxidase from Rhodococcus jostii RHA1: A Versatile Oxidative Biocatalyst” (Chembiochem, 2016)

Substrate: C=CCc1cc(OC)c(O)c(OC)c1
Assay: purified protein
Format: biochemical, Rhodococcus jostii
Conditions: Tris-HCl 50 mM, pH 7.5, 25 °C, O2 as co-substrate

B1: Eugenol oxidase (EUGO) (Rhodococcus jostii RHA1) (protein)
chain: MTRTLPPGVSDERFDAALQRFRDVVGDKWVLSTADELEAFRDPYPVGAAEANLPSAVVSPESTEQVQDIVRIANEYGIPLSPVSTGKNNGYGGAAPRLSGSVIVKTGERMNRILEVNEKYGYALLEPGVTYFDLYEYLQSHDSGLMLDCPDLGWGSVVGNTLDRGVGYTPYGDHFMWQTGLEVVLPQGEVMRTGMGALPGSDAWQLFPYGFGPFPDGMFTQSNLGIVTKMGIALMQRPPASQSFLITFDKEEDLEQIVDIMLPLRINMAPLQNVPVLRNIFMDAAAVSKRTEWFDGDGPMPAEAIERMKKDLDLGFWNFYGTLYGPPPLIEMYYGMIKEAFGKIPGARFFTHEERDDRGGHVLQDRHKINNGIPSLDELQLLDWVPNGGHIGFSPVSAPDGREAMKQFEMVRNRANEYNKDYAAQFIIGLREMHHVCLFIYDTAIPEAREEILQMTKVLVREAAEAGYGEYRTHNALMDDVMATFNWGDGALLKFHEKIKDALDPNGIIAPGKSGIWSQRFRGQNL
notes: homodimer
Km: 0.8 µM | kcat: 0.49 s⁻¹
